Positions of bridges follow the written chain, without caps; N, C: chain ends. Non-standard residues stand in square brackets, D forms with d. R5 = C=CCCC[C@@](C)(N)C(=O)O; S5 = C=CCCC[C@](C)(N)C(=O)O; Abu = CC[C@H](N)C(=O)O; Aib = CC(C)(N)C(=O)O
How the values were obtained:
eIF4E [1] = biological target: T1, eIF4E (Homo sapiens, UniProt P06730); test: eIF4E affinity (SPR/FP, method not named); format: binding
T1 construct: made in house
Protocol: Apparent Kd values were determined for a variety of molecules via competitive anisotropy anisotropy experiments. Titrations were carried out with the concentrations eIF4E held constant at 200 nM, respectively and the labeled peptide at 50 nM. The competing molecules were then titrated against complex of the FAM labeled peptide and protein. Apparent Kd values were determined by fitting the experimental data to the equations shown below: […]
(§1) Six buffer blanks were first injected to equilibrate the instrument fully and then a solvent correction curve was performed followed by a further two blank injections. […] Using a flow rate of 50 μl/min, compounds were injected for 60 s and dissociation was monitored for 180 s. The data collection rate was 10 Hz. Kds were determined using the BiaEvaluation software (Biacore) and calculated kinetically from the dissociation and association phase data for each of the peptides. The kinetic data were fitted to 1:1 binding models. Each individual peptide Kd was determined from three separate titrations. Within each titration at least two concentration points were duplicated to ensure stability and robustness of the chip surface.

circular dichroism = conditions: 5 mM sodium phosphate; pH 7.0; ns °C; 0.5 or 2 mg/mL
[2] = Circular dichroism, percent α-helicity in solution; format: physicochemical; conditions: CD, 5 mM sodium phosphate buffer pH 7.0
Protocol: CD was measured on a JASCO J-810 spectropolarimeter, and spectra were either recorded with a quartz cuvette (Helmer) with a pathlength of 0.01 cm or 0.1 cm in 5 mM sodium phosphate buffer (pH 7.0). FUV CD spectra were recorded from 260 nm to 200 nm at a peptide concentration of either 2 mg/ml or 0.5 mg/ml, respectively. The CD signal was converted into mean residue ellipticity in units of degree·cm^2·dmol^−1·residue^−1. CD spectra were recorded at a data pitch of 0.2 nm at 50 nm min^−1, a response time of 2 s, and a bandwidth of […]. Once converted to mean residue ellipticity, percent α-helicity can be calculated with equation (1) and (2): […]

eIF4E [3] = biological target: T1, eIF4E; test: Competitive fluorescence anisotropy (FP) assay against FAM labeled tracer peptide; format: binding
Protocol: (§2) Apparent Kd values were determined for a variety of molecules via competitive anisotropy anisotropy experiments. Titrations were carried out with the concentrations eIF4E held constant at 200 nM, respectively and the labeled peptide at 50 nM. […] Apparent Kd values were determined by fitting the experimental data to the equations shown below:
[L]st and [L]t denote labeled ligand and total unlabeled ligand input concentrations, respectively. Kd2 is the dissociation constant of the interaction between the unlabelled ligand and the protein. […] Readings were carried out with an Envision Multilabel Reader (PerkinElmer). […] All titrations were carried out in triplicate. Curve-fitting was carried out using Prism 4.0 (GraphPad).

MDA-MB-231 cells [4] = test: Western Blot of protein levels in treated cells, FIG. 12B; format: cell-based; conditions: MDA-MB-231, absence or presence of 10% Fetal calf serum, 1% DMSO
Excerpt: Actin protein is a loading control to indicate that the same amount of proteins was loaded into each well.

MDA-MB-468 cells = test: Normalized luminescence / cell viability, FIG. 12A; format: cell-based; conditions: MDA-MB-468, increasing peptide concentration
Protocol: (§3) FIG. 12A is a dot plot representing normalized luminescence in MDA-MB-468 and MDA-MB-231 cells over increased concentration of staple peptides. MDA-MB-468 and MDA-MB-231 cells were lysed and a recombinant luciferase protein was added to the lysed cells.

MDA-MB-231 cells [5] = test: Normalized luminescence / cell viability, FIG. 12A; format: cell-based; conditions: MDA-MB-231, increasing peptide concentration
Protocol: as §3

[6] = biological target: T2, human eukaryotic translation initiation factor 4E (eIF4E), full-length (human, UniProt P06730 2-217); test: SPR, Biacore T100, eIF4E immobilised on CM5, peptide as analyte, kinetic 1:1 fit
T2 construct: mature; For SPR it was amine-coupled to a CM5 chip with m7GTP present in a 2:1 ratio. 'mature' is used here for full length; also called full length eIF4E
Protocol: (§4) For stock peptide solutions, the compounds were dissolved in 100% DMSO to a concentration of 10 mM; further dilutions of the peptide stock solutions into DMSO and/or running buffer were performed immediately prior to analysis. Running buffer consisted of 10 mM Hepes pH 7.6, 0.15M NaCl, 1 mM DTT and 0.1% Tween20. Stock/DMSO diluted peptide solutions were diluted into 1.03× running buffer to make a peptide solution with 3% DMSO final concentration. […] Surface Plasmon resonance experiments were performed on a Biacore T100 machine.
eIF4E was immobilized on a CM5 sensor chip. The CM5 chip was conditioned with a 6 s injection of 100 mM HCL, followed by a 6 s injection of 0.1% SDS and completed with a 6 s injection of 50 mM NaOH at a flow rate of 100 μl/min. […] Purified eIF4E was diluted with 10 mM sodium acetate buffer (pH 5.0) to a final concentration of 0.5 μM with m⁷ GTP present in a 2:1 ratio in order to stabilize eIF4E. The amount of eIF4E immobilized on the activated surface was controlled by altering the contact time of the protein solution and was approximately 1000 RU. After the immobilization of the protein, a 7-min injection (at 10 μl min⁻¹) of 1 M ethanolamine (pH 8.5) was used to quench excess active succinimide ester groups.
as §1, with “titrations.” for “titrations. Within each titration at least two concentration points were duplicated to ensure stability and robustness of the chip surface.”

[7] = biological target: T2, human eukaryotic translation initiation …; test: competitive fluorescence anisotropy (FP), displacement of FAM tracer from eIF4E, apparent Kd
Protocol: as §2, with “below: […]” for “below:”

[8] = biological target: T2, human eukaryotic translation initiation …; test: SPR, Biacore T100, eIF4E immobilised on CM5, peptide as analyte, kinetic 1:1 fit; SPR (first value of the SPR/FP cell); weak, about 12 uM
Protocol: as §4
(§5) eIF4E was immobilized on a CM5 sensor chip. The CM5 chip was conditioned with a 6 s injection of 100 mM HCL, followed by a 6 s injection of 0.1% SDS and completed with a 6 s injection of 50 mM NaOH at a flow rate of 100 μl/min. […]
as §1, with “The data collection rate was 10 Hz.” left out, “The kinetic data were fitted to 1:1 binding models.” left out, “titrations.” for “titrations. Within each titration at least two concentration points were duplicated to ensure stability and robustness of the chip surface.”

[9] = biological target: T2, human eukaryotic translation initiation …; test: Kd ratio from Table 2 (SPR/FP; which assay is not said)
[10] = biological target: T2, human eukaryotic translation initiation …; test: Kd ratio from Table 2 (SPR/FP; which assay is not said; the reference is the linear template eIF4G^D5S)
[11] = biological target: T2, human eukaryotic translation initiation …; test: SPR, Biacore T100, eIF4E immobilised on CM5, peptide as analyte, kinetic 1:1 fit; SPR (first value of the SPR/FP cell); weak, about 9 uM
Protocol: as §4, §5
as §1, with “The data collection rate was 10 Hz.” left out, “The kinetic data were fitted to 1:1 binding models.” left out, “titrations.” for “titrations. Within each titration at least two concentration points were duplicated to ensure stability and robustness of the chip surface.”

T1 sequence (P06730 whole entry): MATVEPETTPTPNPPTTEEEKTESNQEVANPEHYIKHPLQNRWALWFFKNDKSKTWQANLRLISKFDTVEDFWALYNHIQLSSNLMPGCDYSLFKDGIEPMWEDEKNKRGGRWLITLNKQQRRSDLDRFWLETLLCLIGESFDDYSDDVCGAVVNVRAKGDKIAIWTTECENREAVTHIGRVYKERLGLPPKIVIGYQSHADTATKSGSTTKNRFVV
T2 sequence (P06730 2-217): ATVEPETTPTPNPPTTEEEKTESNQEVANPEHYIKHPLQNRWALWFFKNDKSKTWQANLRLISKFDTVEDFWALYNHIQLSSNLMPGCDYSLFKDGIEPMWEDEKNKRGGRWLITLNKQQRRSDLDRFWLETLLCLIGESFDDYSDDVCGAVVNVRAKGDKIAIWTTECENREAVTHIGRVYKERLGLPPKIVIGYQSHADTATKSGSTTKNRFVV

CC(=O)N[C@@H](CCCCN)C(=O)N[C@@H](CCCCN)C(=O)N[C@@H](CCCNC(=N)N)C(=O)N[C@@H](Cc1ccc(O)cc1)C(=O)N[C@@H](CO)C(=O)N[C@@H](CCCNC(=N)N)C(=O)N[C@@H](CCC(=O)O)C(=O)NC(C)(C)C(=O)N[C@@H](CC(C)C)C(=O)N[C@@H](CC(C)C)C(=O)NCC(=O)NC(C)(C)C(N)=O [TIP-02, KKRYSREXLLGX]
affinity / binding to eIF4E (in words) (eIF4E [1]): greatly reduced affinity for eIF4E | helicity (circular dichroism): 0% | Helicity (%) [2]: 0/ % | displacement of the FAM labeled peptide in the competition assay (eIF4E [3]): failed to displace the FAM labeled peptide

CC(=O)N[C@@H](CCCCN)C(=O)N[C@@H](CCCCN)C(=O)N[C@@H](CCCNC(=N)N)C(=O)N[C@@H](Cc1ccc(O)cc1)C(=O)N[C@@H](CO)C(=O)N[C@@H](CCCNC(=N)N)C(=O)N[C@@H](CCC(=O)O)C(=O)N[C@]1(C)CCCC=CCCC[C@@](C)(C(=O)N[C@@H](Cc2ccccc2)C(N)=O)NC(=O)[C@H](CC(C)C)NC(=O)[C@H](CC(C)C)NC1=O [sTIP-03, KKRYSRE*LL*F]
fold decrease / improvement in Kd over eIF4G^D5S (eIF4E [1]; stronger binding): 17 fold | Bcl-XL protein levels (MDA-MB-231 cells [4]): down-regulates | survivin protein levels (MDA-MB-231 cells [4]): down-regulates | helicity (circular dichroism): 45% | cell viability (normalized luminescence) (MDA-MB-468 cells): decreases cell viability in a dose-dependent manner | cell viability (normalized luminescence) (MDA-MB-231 cells [5]): decreases cell viability in a dose-dependent manner

B1: TIP-04 (peptide)
peptide: Ac-KKRYSR[Aib]QLL[Aib]L-NH2
notes: Printed KKRYSRXQLLXL, X = AIB; also called AIB derivative of sTIP-04
Kd [6]: 22 nM | Kd [7]: 60 nM

B2: TIP-01^Tr (peptide)
peptide: Ac-KKRYSR[Aib]FLL[Aib]-NH2
SMILES: CC(=O)N[C@@H](CCCCN)C(=O)N[C@@H](CCCCN)C(=O)N[C@@H](CCCNC(=N)N)C(=O)N[C@@H](Cc1ccc(O)cc1)C(=O)N[C@@H](CO)C(=O)N[C@@H](CCCNC(=N)N)C(=O)NC(C)(C)C(=O)N[C@@H](Cc1ccccc1)C(=O)N[C@@H](CC(C)C)C(=O)N[C@@H](CC(C)C)C(=O)NC(C)(C)C(N)=O
notes: Printed KKRYSRXFLLX; TIP-01 with the C-terminal F12 removed
Kd [8]: 12100 nM

B3: TIP-01^F12& (peptide)
peptide: Ac-KKRYSR[Aib]FLL[Aib][Abu]-NH2
SMILES: CC[C@H](NC(=O)C(C)(C)NC(=O)[C@H](CC(C)C)NC(=O)[C@H](CC(C)C)NC(=O)[C@H](Cc1ccccc1)NC(=O)C(C)(C)NC(=O)[C@H](CCCNC(=N)N)NC(=O)[C@H](CO)NC(=O)[C@H](Cc1ccc(O)cc1)NC(=O)[C@H](CCCNC(=N)N)NC(=O)[C@H](CCCCN)NC(=O)[C@H](CCCCN)NC(C)=O)C(N)=O
notes: Printed KKRYSRXFLLX&
Kd [6]: 111 nM | Kd [7]: 133 nM

B4: TIP-01 (peptide)
peptide: Ac-KKRYSR[Aib]FLL[Aib]F-NH2
SMILES: CC(=O)N[C@@H](CCCCN)C(=O)N[C@@H](CCCCN)C(=O)N[C@@H](CCCNC(=N)N)C(=O)N[C@@H](Cc1ccc(O)cc1)C(=O)N[C@@H](CO)C(=O)N[C@@H](CCCNC(=N)N)C(=O)NC(C)(C)C(=O)N[C@@H](Cc1ccccc1)C(=O)N[C@@H](CC(C)C)C(=O)N[C@@H](CC(C)C)C(=O)NC(C)(C)C(=O)N[C@@H](Cc1ccccc1)C(N)=O
notes: Printed KKRYSRXFLLXF, X = AIB; also called diAIB derivative of sTIP-01
fold decrease in Kd over eIF4G^D5S [9]: ~2 fold | Kd [6]: 59.7 nM | Kd [7]: 52.4 nM

B5: TIP-01^F8A (peptide)
peptide: Ac-KKRYSR[Aib]ALL[Aib]F-NH2
SMILES: CC(=O)N[C@@H](CCCCN)C(=O)N[C@@H](CCCCN)C(=O)N[C@@H](CCCNC(=N)N)C(=O)N[C@@H](Cc1ccc(O)cc1)C(=O)N[C@@H](CO)C(=O)N[C@@H](CCCNC(=N)N)C(=O)NC(C)(C)C(=O)N[C@@H](C)C(=O)N[C@@H](CC(C)C)C(=O)N[C@@H](CC(C)C)C(=O)NC(C)(C)C(=O)N[C@@H](Cc1ccccc1)C(N)=O
notes: Printed KKRYSRXALLXF, X = AIB
Kd [6]: 117 nM | Kd [7]: 156 nM

B6: sTIP-01 (peptide)
peptide: Ac-KKRYSR[S5]FLL[S5]F-NH2
modifications: staple 7-11
SMILES: CC(=O)N[C@@H](CCCCN)C(=O)N[C@@H](CCCCN)C(=O)N[C@@H](CCCNC(=N)N)C(=O)N[C@@H](Cc1ccc(O)cc1)C(=O)N[C@@H](CO)C(=O)N[C@@H](CCCNC(=N)N)C(=O)N[C@@]1(C)CCCC=CCCC[C@@](C)(C(=O)N[C@@H](Cc2ccccc2)C(N)=O)NC(=O)[C@H](CC(C)C)NC(=O)[C@H](CC(C)C)NC(=O)[C@H](Cc2ccccc2)NC1=O
notes: Printed KKRYSR*FLL*F, * = staple position
fold increase in Kd over eIF4G^D5S [9]: ~4.5 fold | Kd [7]: 558 nM

B7: eIF4G^D5S (peptide)
peptide: Ac-KKRYSREFLLGF-NH2
notes: also called eIF4G1^D5S; linear template peptide
Kd [6]: 99.9 nM | Kd [7]: 195 nM

B8: sTIP-03 (peptide)
peptide: Ac-KKRYSRE[R5]LL[S5]F-NH2
modifications: staple 8-11
notes: Printed KKRYSRE*LL*F, * = staple position
fold improvement in Kd [10]: 17 fold

B9: TIP-02 (peptide)
peptide: Ac-KKRYSRE[Aib]LLG[Aib]-NH2
SMILES: CC(=O)N[C@@H](CCCCN)C(=O)N[C@@H](CCCCN)C(=O)N[C@@H](CCCNC(=N)N)C(=O)N[C@@H](Cc1ccc(O)cc1)C(=O)N[C@@H](CO)C(=O)N[C@@H](CCCNC(=N)N)C(=O)N[C@@H](CCC(=O)O)C(=O)NC(C)(C)C(=O)N[C@@H](CC(C)C)C(=O)N[C@@H](CC(C)C)C(=O)NCC(=O)NC(C)(C)C(N)=O
notes: Printed KKRYSREXLLGX, X = AIB; also called AIB derivative of sTIP-02
Kd [11]: 9190 nM

— patent publication US20160046672A1, “STAPLING eIF4E INTERACTING PEPTIDES” (AGENCY FOR SCIENCE, TECHNOLOGY AND RESEARCH, priority 2013, published 2016)
